The supplement of paper PMC10219994
± gives the standard deviation of the averaged measurements.

B1: library; a variant is named by its letters at N, in order (parent)
chain: GAGACCGCAACTGAAAAGTTGTGGNNNNNATAGTGAGTCGCTGCCTGCAAAGACACAACT

Variants of: B1
Test: ligation selection enrichment (abundance after / before one-round selection) (fold); higher = more template-directed ligation activity
Conditions: with T7Psub CACGGAUGCUAAUACGACUCACUAUA; MgCl2 25 mM; 42 °C; 4 h; pH 8.5
Description: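 Lib-N5 ligase ribozyme library: five randomized core nucleotides (including the GGA motif of N8-1) within the fixed N8-1 ribozyme flanks, transcribed by T7 RNA polymerase with a 5'-triphosphate. The library (0.75 uM) was reacted with substrate T7Psub (6 uM) in 50 mM EPPS pH 8.5 with 25 mM MgCl2 at 42 C for 4 h. Ligated products were PAGE-purified, reverse transcribed and MiSeq sequenced; enrichment = abundance after selection / abundance before selection, with two independent replicates. The full transcript is built from the printed template flanks.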

Compared with GAGACCGCAACTGAAAAGTTGTGGAGATAATAGTGAGTCGCTGCCTGCAAAGACACAACT [AGATA], GAGACCGCAACTGAAAAGTTGTGGGTCTCATAGTGAGTCGCTGCCTGCAAAGACACAACT [GTCTC] is lower in ligation selection enrichment: 0.533 ± 0.16 for the first, 0.116 ± 0.027 for the second.

GAGACCGCAACTGAAAAGTTGTGGTCCGAATAGTGAGTCGCTGCCTGCAAAGACACAACT [TCCGA] and GAGACCGCAACTGAAAAGTTGTGGACCGCATAGTGAGTCGCTGCCTGCAAAGACACAACT [ACCGC] are within error of each other in ligation selection enrichment: 0.205 ± 0.034 for the first, 0.182 ± 0.016 for the second.

Compared with GAGACCGCAACTGAAAAGTTGTGGGCTTGATAGTGAGTCGCTGCCTGCAAAGACACAACT [GCTTG], GAGACCGCAACTGAAAAGTTGTGGGCACAATAGTGAGTCGCTGCCTGCAAAGACACAACT [GCACA] is lower in ligation selection enrichment: 0.955 ± 0.16 for the first, 0.175 ± 0.0085 for the second.

GAGACCGCAACTGAAAAGTTGTGGCTGCTATAGTGAGTCGCTGCCTGCAAAGACACAACT [CTGCT] and GAGACCGCAACTGAAAAGTTGTGGATCGTATAGTGAGTCGCTGCCTGCAAAGACACAACT [ATCGT] are within error of each other in ligation selection enrichment: 0.833 ± 0.12 for the first, 0.723 ± 0.28 for the second.

First: GAGACCGCAACTGAAAAGTTGTGGTACGAATAGTGAGTCGCTGCCTGCAAAGACACAACT [TACGA]
Second: GAGACCGCAACTGAAAAGTTGTGGAAGCCATAGTGAGTCGCTGCCTGCAAAGACACAACT [AAGCC]
The ligation selection enrichment of the first is higher: 1.32 ± 0.13 for the first, 0.188 ± 0.021 for the second.

GAGACCGCAACTGAAAAGTTGTGGCAACCATAGTGAGTCGCTGCCTGCAAAGACACAACT [CAACC] and GAGACCGCAACTGAAAAGTTGTGGAATTCATAGTGAGTCGCTGCCTGCAAAGACACAACT [AATTC] are within error of each other in ligation selection enrichment: 0.126 ± 0.0056 for the first, 0.201 ± 0.075 for the second.

First: GAGACCGCAACTGAAAAGTTGTGGGCGTCATAGTGAGTCGCTGCCTGCAAAGACACAACT [GCGTC]
Second: GAGACCGCAACTGAAAAGTTGTGGGGCATATAGTGAGTCGCTGCCTGCAAAGACACAACT [GGCAT]
The ligation selection enrichment of the first is lower: 0.231 ± 0.09 for the first, 5.15 ± 1.1 for the second.

Going from GAGACCGCAACTGAAAAGTTGTGGACAATATAGTGAGTCGCTGCCTGCAAAGACACAACT [ACAAT] to GAGACCGCAACTGAAAAGTTGTGGACAACATAGTGAGTCGCTGCCTGCAAAGACACAACT [ACAAC], the ligation selection enrichment falls from 3.6 ± 0.37 to 0.224 ± 0.024.

First: GAGACCGCAACTGAAAAGTTGTGGTATGGATAGTGAGTCGCTGCCTGCAAAGACACAACT [TATGG]
Second: GAGACCGCAACTGAAAAGTTGTGGGTTTGATAGTGAGTCGCTGCCTGCAAAGACACAACT [GTTTG]
The ligation selection enrichment of the first is lower: 0.616 ± 0.093 for the first, 2.05 ± 0.47 for the second.

First: GAGACCGCAACTGAAAAGTTGTGGCTTTAATAGTGAGTCGCTGCCTGCAAAGACACAACT [CTTTA]
Second: GAGACCGCAACTGAAAAGTTGTGGGGTTCATAGTGAGTCGCTGCCTGCAAAGACACAACT [GGTTC]
The ligation selection enrichment of the first is higher: 0.398 ± 0.12 for the first, 0.216 ± 0.015 for the second.

First: GAGACCGCAACTGAAAAGTTGTGGGTAGTATAGTGAGTCGCTGCCTGCAAAGACACAACT [GTAGT]
Second: GAGACCGCAACTGAAAAGTTGTGGTAGATATAGTGAGTCGCTGCCTGCAAAGACACAACT [TAGAT]
The ligation selection enrichment of the first is lower: 0.166 ± 0.037 for the first, 15.6 ± 3.6 for the second.

Going from GAGACCGCAACTGAAAAGTTGTGGAGTTCATAGTGAGTCGCTGCCTGCAAAGACACAACT [AGTTC] to GAGACCGCAACTGAAAAGTTGTGGGCTGGATAGTGAGTCGCTGCCTGCAAAGACACAACT [GCTGG], the ligation selection enrichment rises from 0.176 ± 0.014 to 0.462 ± 0.073.

Compared with GAGACCGCAACTGAAAAGTTGTGGAATGTATAGTGAGTCGCTGCCTGCAAAGACACAACT [AATGT], GAGACCGCAACTGAAAAGTTGTGGTGAGGATAGTGAGTCGCTGCCTGCAAAGACACAACT [TGAGG] is higher in ligation selection enrichment: 0.153 ± 0.076 for the first, 0.319 ± 0.074 for the second.

Compared with GAGACCGCAACTGAAAAGTTGTGGATGAGATAGTGAGTCGCTGCCTGCAAAGACACAACT [ATGAG], GAGACCGCAACTGAAAAGTTGTGGGCCCCATAGTGAGTCGCTGCCTGCAAAGACACAACT [GCCCC] is lower in ligation selection enrichment: 0.834 ± 0.057 for the first, 0.227 ± 0.022 for the second.

Going from GAGACCGCAACTGAAAAGTTGTGGTTAGAATAGTGAGTCGCTGCCTGCAAAGACACAACT [TTAGA] to GAGACCGCAACTGAAAAGTTGTGGACGTGATAGTGAGTCGCTGCCTGCAAAGACACAACT [ACGTG], the ligation selection enrichment falls from 0.304 ± 0.054 to 0.17 ± 0.0072.

Compared with GAGACCGCAACTGAAAAGTTGTGGCCTTGATAGTGAGTCGCTGCCTGCAAAGACACAACT [CCTTG], GAGACCGCAACTGAAAAGTTGTGGCCATGATAGTGAGTCGCTGCCTGCAAAGACACAACT [CCATG] is lower in ligation selection enrichment: 0.874 ± 0.15 for the first, 0.166 ± 0.043 for the second.

First: GAGACCGCAACTGAAAAGTTGTGGCGCGCATAGTGAGTCGCTGCCTGCAAAGACACAACT [CGCGC]
Second: GAGACCGCAACTGAAAAGTTGTGGGCGGAATAGTGAGTCGCTGCCTGCAAAGACACAACT [GCGGA]
The ligation selection enrichment of the first is lower: 0.223 ± 0.025 for the first, 0.334 ± 0.035 for the second.

Going from GAGACCGCAACTGAAAAGTTGTGGTGTATATAGTGAGTCGCTGCCTGCAAAGACACAACT [TGTAT] to GAGACCGCAACTGAAAAGTTGTGGTTGGTATAGTGAGTCGCTGCCTGCAAAGACACAACT [TTGGT], the ligation selection enrichment falls from 1.97 ± 0.21 to 0.212 ± 0.12.

Compared with GAGACCGCAACTGAAAAGTTGTGGTCATAATAGTGAGTCGCTGCCTGCAAAGACACAACT [TCATA], GAGACCGCAACTGAAAAGTTGTGGGTCCGATAGTGAGTCGCTGCCTGCAAAGACACAACT [GTCCG] is higher in ligation selection enrichment: 0.274 ± 0.026 for the first, 0.529 ± 0.022 for the second.

First: GAGACCGCAACTGAAAAGTTGTGGGAACAATAGTGAGTCGCTGCCTGCAAAGACACAACT [GAACA]
Second: GAGACCGCAACTGAAAAGTTGTGGCGGACATAGTGAGTCGCTGCCTGCAAAGACACAACT [CGGAC]
The ligation selection enrichment of the first is lower: 0.191 ± 0.024 for the first, 3.77 ± 0.4 for the second.

Compared with GAGACCGCAACTGAAAAGTTGTGGCCAGGATAGTGAGTCGCTGCCTGCAAAGACACAACT [CCAGG], GAGACCGCAACTGAAAAGTTGTGGAGAGGATAGTGAGTCGCTGCCTGCAAAGACACAACT [AGAGG] is higher in ligation selection enrichment: 0.178 ± 0.009 for the first, 0.288 ± 0.045 for the second.

Going from GAGACCGCAACTGAAAAGTTGTGGCCCCAATAGTGAGTCGCTGCCTGCAAAGACACAACT [CCCCA] to GAGACCGCAACTGAAAAGTTGTGGCACCAATAGTGAGTCGCTGCCTGCAAAGACACAACT [CACCA], the ligation selection enrichment falls from 0.14 ± 0.0052 to 0.112 ± 0.018.

GAGACCGCAACTGAAAAGTTGTGGCACTTATAGTGAGTCGCTGCCTGCAAAGACACAACT [CACTT] was tested, and the ligation selection enrichment was 0.105 ± 0.047.
